Reference: the supplement of paper PMC10567573

B1: FAM46D (parent)
chain: LELKFVSSLRRQFEFSVDSFQIVL
B2: PRIM1 (parent)
chain: CCSSADICPKCWTLMTMAIRIIDR

Variants of: B1
Test: protein stability index of a GFP-peptide fusion (GPS, HEK-293T) (PSI 1-6); higher = more stable
Details: c terminus: a fixed tail appended
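Also: lentivirally expressed fusions sorted by FACS into six bins by GFP to DsRed ratio, PSI derived from sequencing read proportions per bin multiplied by bin number.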

Protein stability index: each site, then its substitutions
F13: N 2.82; W 3.64; Y 1.76; I 3.87; S 2.67; L 3.36; K 2.91; D 2.54; H 2.73; R 3.23; V 3.73; E 2.55; C 4.36; T 3.34; Q 2.84
E14: K 3.16; N 2.89; W 2.46; V 2.06; L 2.84; G 3.4; D 4; Y 3.27; S 2.66; R 2.17; I 3.52; P 3.67; C 3.17; Q 2.24; M 2.77; A 3.98; T 4.77
D18: A 4.25; K 3.6; R 3.4; E 1.74; C 2; Q 3.71; V 3.13; M 4.61; I 3.49; Y 3.18; P 3.29; H 4.76; W 3.27; N 3.43; S 2.94; L 2.1; G 2.54; F 2.06
L3: E 1.66; K 3.37; G 2.11; I 2.5; T 3.15; C 2.84; V 3; Y 2.2; H 1.82; A 3.39; S 3.84; P 1.62; R 2.23; D 3.2; N 2.3; Q 2.38; F 2.43; W 2.77
L1: K 2.36; Q 2.32; G 2.02; S 2.57; V 2.79; W 1.92; E 2.65; I 2.7; H 2.49; Y 2.56; N 2.9; M 4.32; R 2.33; F 3.04; A 2.03; D 1.9; T 2.9; P 2.78
V17: C 3.37; W 4.01; K 2.76; E 1.91; A 2.4; R 3.4; T 2.76; I 2.8; M 4.44; S 2.19; D 4.26; L 3.25; G 2.62; Y 1.51; P 2.44; F 2.88; N 3.45; H 3.65
V6: L 2.81; R 3.15; P 2.08; Q 1.56; W 4; G 2.81; N 4.62; K 3.51; A 2.77; C 2.22; T 3.31; Y 3.16; D 2.73; I 2.95; M 2.61; F 2.38; H 2.9; S 2.49; E 2.75
S16: D 3.15; K 3.51; T 4.1; E 2.89; H 2.69; R 3.43; I 2.93; F 2.79; A 3.32; C 3.91; P 3.75; V 3.91; Y 2.83; M 3.57; N 3.05
L9: Y 2.01; W 3.47; R 3.73; I 2.75; D 3.93; H 2.9; P 3.04; T 2.99; A 2.93; E 1.82; K 2.41; S 3.64; V 4.14; N 2.64; Q 3.29; C 3.2; F 2.95
S8: P 2.69; C 2.96; H 3.22; F 1.95; N 2.92; K 2.05; V 1.71; D 2.97; M 3.34; T 3; L 3.46; Q 2.95; R 2.15; Y 2.44; W 2.98; A 2.57; G 2.81
F15: C 2.42; Q 3.16; L 3.69; V 4.5; H 5.32; R 2.68; S 3.33; M 2.58; D 2.09; T 2.43; E 3.22; N 4.46; K 2.13; G 3.1; I 4.07; P 2.92; W 3.57
K4: S 3.75; F 3.11; C 3.62; D 3.48; G 2.9; M 4.16; Y 2.06; N 2.95; L 3.25; H 3.46; V 4.21; E 2.38; R 3.25; P 3.77; A 2.28; Q 3.84; I 2.9
S7: Y 3.11; C 3.17; D 3.25; N 1.88; F 4.35; R 2.91; A 3.21; H 3.18; T 1.5; E 4.25; I 2.85; K 2.57; G 2.76; P 2.67; W 2.37; M 3.02; Q 2.43
E2: V 3.32; W 2.81; I 1.99; H 2.95; C 2.74; M 2.57; R 3.42; T 2.78; Q 2.48; K 3.23; G 2.65; S 3; L 1.7; Y 3.04; F 2.6; A 2.56; D 2.46; N 2.6
R10: M 2.72; N 2.23; T 2.83; Y 2.17; A 3; I 3.38; C 2.67; W 2.01; H 2.93; S 3.46; F 2.79; P 3.23; L 3.46; V 2.04
F5: D 2.09; K 1.64; V 3.54; S 3.1; R 2.39; A 3.94; N 2.37; I 3.77; L 1.96; C 3.27; Q 2.59; Y 3.22; P 3.01; M 4.22; T 2.8; E 1.4; G 2.6
R11: M 2.27; Q 3.05; Y 3.14; S 2.99; I 2.54; H 2.97; C 3.03; W 4.32; A 4.7; L 2.62; F 3.08; E 3.47; T 3.4; K 3.21; G 3.69; D 1.97; N 3.06
Q12: F 2.68; V 3.44; K 3.09; R 2.39; S 3.06; E 2.55; D 2.52; G 2.76; C 1.78; P 2.65; A 4.78; W 3.97; H 2.46; N 2.49; Y 2.8; T 2.42; M 3.09
S19: C 2.44; D 3.06; E 3.31; A 3.69; F 3.6

Variants of: B2
Test: as above
Details: c terminus: a fixed tail appended

Protein stability index: each site, then its substitutions
C1: K 1.61; Y 1.37
S3: H 2.16; K 1.45
W12: L 1.56
K10: H 2; M 1.92; E 1.56
D23: F 1.78; E 1.94; K 1.41; A 2.29
T16: V 1.87; P 2.09
D6: T 2.29
C2: E 1.83
P9: K 2.69
M17: N 2.48
L14: Q 1.9
I7: S 1.72
A18: K 2.17
R20: W 1.65
R24: H 1.95
